# Data as given in patent publication US20250195685A1 (CAPSTAN THERAPEUTICS, published 2025).
# Substitutions are numbered along the chain they refer to.
# B1: CBD1017ch Fab (chimeric CT8 Fab) (Fab, V domains shown)
# VH: EVQLQQSGPELVKPGASVKISCKASRYTFTDYNLHWVKLSHEKSLEWIGFIYPYNGGTGYNQKFKNKAKLTVDYSSSTAYMELRSLTSVDAAVYYCARDHRYNEGVSFDYWGQGTTLTVSS
# VL: NIVLTQSPASLAVSLGQRATISCRASESVDGFGNSFMNWYQQKPGQSPKLLIYLASNLESGVPARFSGSGSRTDFTLTIDPVEADDAATYYCQQNNEDPYTFGGGTKLEIK
# notes: Chimeric: variable regions of mouse CT8 (clone RPA-T8) with human constant parts; also called parental CBD1017ch Fab
# B2: CBD1036-hIgG1-LALAPA (antibody, V domains shown)
# VH: QVQLVQSGAEVKKPGASVKISCKASRYTFTDYNLHWVRQAPGQGLEWIGFIYPYNGGTGYAQKFQGRATLTVDTSTSTAYMELSSLRSEDTAVYYCARDHRYNEGVSFDYWGQGTTLTVSS
# VL: DIQLTQSPSSLSASVGDRATITCRASESVDGFGNSFMNWYQQKPGKAPKLLIYLASNLESGVPSRFSGSGSRTDFTLTISSVQPEDFATYYCQQNNEDPYTFGQGTKLEIKR
# notes: also called h1017-H3/L3 whole antibody
# B3: CBD1037-hIgG1-LALAPA (antibody, V domains shown)
# VH: B2 VH with I20V, I48M, A68V, L70M, T74Y, L117V
# VL: B2 VL with R72G
# notes: also called h1017-H4/L2 whole antibody
# B4: CBD1038-hIgG1-LALAPA (antibody, V domains shown)
# VH: B2 VH with I20V, I48M, A68V, L70M, T74Y, L117V
# VL: B2 VL
# notes: also called h1017-H4/L3 whole antibody
# B5: maleimide-PEG-biotin conjugated CBD1033.24 F(ab') (IgG4-derived) (Fab, V domains shown)
# VH: B2 VH with I20V, I48M, A68V, L70M, L117V
# VL: B2 VL with R72G
# modifications: maleimide-PEG11-biotin on CH C227 (sequential numbering, corresponding to C239 in Kabat numbering)
# notes: Loaded on streptavidin sensors through the biotin; also called biotinylated Fab sample CBD1033.24
# B6: CBD1049 (antibody, human IgG1, kappa, L234A L235A, V domains shown)
# VH: B2 VH with I20V, A68V, T74Y, T116L, L117V
# VL: EIVLTQSPGTLSLSPGERATLSCRASESVDGFGNSFMNWYQQKPGQAPRLLIYLASNLESGVPARFSGSGSGTDFTLTISRLEPEDFAVYYCQQNNEDPYTFGQGTKVEIKR
# notes: also called h1017-H10/L5 whole antibody hIgG1-LALAPA
# B7: CBD1050 (antibody, human IgG1, kappa, L234A L235A, V domains shown)
# VH: B2 VH with I20V, A68V, T74Y, T116L, L117V
# VL: B6 VL with G72R
# notes: also called h1017-H10/L6 whole antibody hIgG1-LALAPA
# Assays:
# [1] = target: T1, human CD8αα homodimer, recombinant protein (Acro Biosystems) (human, UniProt P01732 22-182); assay: BLI kinetics, Fab, 37 °C
# T1 construct: also called CD8αα antigen; biotinylated CD8α recombinant protein (CDA-H82E3)
# T1 sequence (P01732 22-182 limits assumed): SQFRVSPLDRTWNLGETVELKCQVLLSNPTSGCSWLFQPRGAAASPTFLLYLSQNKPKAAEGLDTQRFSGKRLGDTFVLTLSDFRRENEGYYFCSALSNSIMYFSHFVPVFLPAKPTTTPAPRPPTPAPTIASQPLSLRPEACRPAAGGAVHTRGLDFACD
# Experimental: (§1) Biolayer interferometry kinetic assays were performed using a GatorBio Gator Plus BLI system. Kinetic buffer containing PBS plus 0.1% Tween 20 and 0.2% BSA was used for calculating the baseline. To measure the binding kinetics of anti-CD8α antibody fragment (Fab), streptavidin-immobilized SA-XT sensors (#160029, Gator Bio) were prehydrated in the kinetic buffer and loaded with […] biotinylated CD8α recombinant protein (CDA-H82E3, Acro Biosystems) at a spin speed of 400 rpm to a threshold response of 10 nm. The sensors were then incubated in the kinetic buffer for 300 s to acquire a baseline measurement prior to each association. […] The antigen-loaded sensors were incubated in the diluted solutions to capture Fab fragments for 300 s to record the association phase. Sensors were finally incubated in the kinetic buffer for 900 s to record the dissociation phase. The spin speed for all steps except the antigen loading step was 1000 rpm. The temperature of the performed assays was either 30° C. or 37° C. during the association and dissociation phases. Sensor data were baseline subtracted, and global curve fitting of the kinetic data from six different analyte concentrations at a 1:1 monovalent binding model was performed using GatorOne software (version v2.10) to determine kinetic rate constants (kₒₙ and koff) and equilibrium dissociation constants (KD) of the analyzed antibodies.
# (§2) The binding kinetics of CBD1033 Fab and its parental CBD1017ch Fab against human CD8αα homodimer, human CD8αβ heterodimer, and cynomolgus macaque CD8ααhomodimer were assessed following the same method in BLI evaluation of humanized Fab variants. For evaluating the binding kinetics against cynomolgus macaque CD8αβ heterodimer protein, the antigen protein was directly coupled onto amine-reactive biosensor tips (Gator Bio) following the manufacturer protocol. Briefly, the sensors were activated for 300 s with a mixture of 1-ethyl-3-(3-dimethylaminopropyl)carbodiimide hydrochloride (EDC) (ThermoFisher Scientific) and 10 mM N-Hydroxysulfosuccinimide sodium salt (sulfo-NHS) (Sigma-Aldrich) in water.
# [2] = target: human CD8αβ heterodimer, recombinant protein (human, UniProt P01732 22-182; P10966 22-170, limits assumed); assay: BLI kinetics, Fab, 37 °C
# Sequence of human CD8αβ heterodimer, recombinant protein (P01732 22-182 limits assumed, chain 1 of 2): as the sequence (P01732 22-182 limits assumed) above
# Sequence of human CD8αβ heterodimer, recombinant protein (P10966 22-170 limits assumed, chain 2 of 2): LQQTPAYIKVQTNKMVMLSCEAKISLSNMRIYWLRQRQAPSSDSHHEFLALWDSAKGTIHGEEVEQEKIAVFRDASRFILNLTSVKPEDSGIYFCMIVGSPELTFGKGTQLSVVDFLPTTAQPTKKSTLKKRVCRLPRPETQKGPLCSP
# Experimental: as §1, §2
# [3] = target: T2, cynomolgus macaque CD8αα homodimer, recombinant protein (cynomolgus macaque); assay: BLI kinetics, Fab, 37 °C as printed in the table
# T2 construct: also called cynomolgus CD8αα homodimer
# Experimental: as §1, §2
# [4] = target: T3, cynomolgus macaque CD8αβ heterodimer, recombinant protein (cynomolgus macaque); assay: BLI kinetics, Fab, antigen amine-coupled to the sensor, 30 °C
# T3 construct: In BLI coupled directly to amine-reactive sensor tips; also called cynomolgus CD8αβ heterodimer
# Experimental: The binding kinetics of CBD1033 Fab and its parental CBD1017ch Fab against human CD8αα homodimer, human CD8αβ heterodimer, and cynomolgus macaque CD8ααhomodimer were assessed following the same method in BLI evaluation of humanized Fab variants. For evaluating the binding kinetics against cynomolgus macaque CD8αβ heterodimer protein, the antigen protein was directly coupled onto amine-reactive biosensor tips (Gator Bio) following the manufacturer protocol. Briefly, the sensors were activated for 300 s with a mixture of 1-ethyl-3-(3-dimethylaminopropyl)carbodiimide hydrochloride (EDC) (ThermoFisher Scientific) and 10 mM N-Hydroxysulfosuccinimide sodium salt (sulfo-NHS) (Sigma-Aldrich) in water. The cynomolgus macaque CD8αβ protein diluted to […] in 10 mM sodium acetate buffer, pH 6.0, was allowed to be covalently captured for 300 s to an approximate threshold of 5 nm, and the sensors were subsequently deactivated with 1 M ethanolamine (ETA) (Sigma-Aldrich) solution, pH 8.5, for 300 s. The sensors were then rinsed in the kinetic buffer for 600 s. The rinse step was repeated for an additional 120 s for baseline calculation prior to the measurements of the binding kinetics. The antibody fragment was diluted into kinetic buffer via 3-fold dilution at concentrations ranging from 1000 nM to 1.37 nM. As above, the antigen-captured sensors were incubated in the diluted solutions to capture the Fab fragments for 1200 s to record the association phase. Sensors were subsequently incubated in the kinetic buffer for 1200 s to record the dissociation phase. The shaking speed for all steps was 1000 rpm and the temperature of the performed assays were at 30° C. The kinetic parameters were determined with 1:1 monovalent (Langmuir) binding model using the previous method.
# [5] = target: T1, human CD8αα homodimer, recombinant …; assay: BLI kinetics, F(ab) on biotinylated CD8α (SA-XT sensor), 1:1 fit, 30 °C
# Experimental: as §1
# [6] = target: T1, human CD8αα homodimer, recombinant …; assay: BLI kinetics, F(ab) on biotinylated CD8α (SA-XT sensor), 1:1 fit, 37 °C [CONT'ED]
# Experimental: as §1
# [7] = target: T2, cynomolgus macaque CD8αα homodimer, …; assay: BLI kinetic sensorgram, 1:1 global fit (legend: 30 °C; FIG. 2I prints 37 °C for the same constants)
# Experimental: as §1, §2
# [8] = target: T1, human CD8αα homodimer, recombinant …; assay: BLI steady state, whole hIgG1-LALAPA antibody on CD8α-His (Ni-NTA sensor), 30 °C
# Experimental: (§3) To assess affinity of whole antibodies, steady state analysis was used as the bivalent nature of both whole antibody and CD8α complicates kinetic analysis. 50 nM CD8α-His (that is, CD8α with a C-terminal oligohistidine tag; Acro) was immobilized on Ni-NTA sensor probes. Binding was analyzed with a three-fold antibody dilutions series: 60 nM, 20 nM, 6.67 nM, 2.22 nM, 0.74 nM, and 0.25 nM. The antigen-loaded sensors were incubated in the diluted solutions to capture the whole IgG antibody for 300 s to record the association phase. Sensors were incubated in the kinetic buffer for 900 s to record the dissociation phase. The spin speed was 1000 rpm for all steps except the antigen loading step which was 400 rpm to control density of the antigen. The temperature of the performed assays was at 30° C. during the association and dissociation phases. The sensor data were baseline subtracted and further analyzed in GatorOne software (version 2.10) to determine the equilibrium dissociation constants (KD) of the antibodies by fitting the signals of the steady states to the 1:1 binding model.
# [9] = target: T4, human CD8 on cells (CD8-overexpressing HEK293T cells, SupT1, HPB-ALL, human T cells, transfected HEK293 of … (human, UniProt P01732 22-235)); assay: flow cytometry on CD8-overexpressing HEK293T cells, non-linear fit of normalized gMFI
# T4 construct: whole, on cells; also called cell surface CD8
# T4 sequence (P01732 22-235): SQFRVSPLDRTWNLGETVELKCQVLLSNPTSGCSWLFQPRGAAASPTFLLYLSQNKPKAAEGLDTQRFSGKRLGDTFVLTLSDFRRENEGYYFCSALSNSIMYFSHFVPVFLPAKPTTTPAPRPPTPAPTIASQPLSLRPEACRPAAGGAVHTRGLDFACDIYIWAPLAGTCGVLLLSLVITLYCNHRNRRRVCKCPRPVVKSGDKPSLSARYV
# Experimental: To obtain the results shown in FIG. 3A, that determined EC₅₀ values for antigen-specific binding, CD8-overexpressing HEK293T cells were dissociated in Versine solution (PBS buffer at pH 7.4 supplemented with 0.5 mM EDTA), and 2×10⁵ total cells were transferred to a V-bottom 96 well culture plate (Corning). Cells were washed twice with Cell Staining buffer (#420201, Biolegend). Each anti-CD8α antibody with human IgG1 isotype and Fc-silencing mutations L234A, L235A and P329A was diluted in four-fold antibody titration series from 100 μg/mL to 6.1 ng/ml into Cell Staining buffer. eFluor 780 Fixable Viability dye (eBioscience) was also included during antibody solutions at a 1:4000 dilution. Cells were stained with each diluted antibody solution for 30 minutes on ice. Cells were then washed three times with Cell Staining buffer and primary antibody binding was detected by staining with anti-human Fc BV421 conjugate antibody (#410704, Biolegend) at 1:100 dilution for 30 minutes on ice. After staining with the secondary detection antibody, cells were washed three times with Cell Staining buffer, fixed in FluoroFix buffer (Biolegend) and kept at 4° C. in the dark until analysis. Flow cytometry analysis on each sample was performed on an Agilent NovoCyte flow cytometer. Flow cytometry data was analyzed by Flowjo 10 (Becton, Dickinson & Company) to measure the geometric median fluorescence intensity (gMFI) of the on-cell binding from each antibody. The gMFI values were normalized with the gMFI measured in the sample stained with only the secondary detection antibody and plotted against the concentration of the added antibodies. The binding curves were constructed using the Graphpad Prism software, and EC₅₀ values were determined by non-linear curve fitting.
# [10] = target: T5, custom recombinant human CD8α mouse IgG2a Fc fusion protein (human; mouse, UniProt P01732 22-182, limits assumed); assay: BLI kinetics, biotin-conjugated F(ab') on SA-XT sensor, HuCD8a mouse Fc fusion as analyte, 37 °C
# T5 construct: Custom protein; also called human CD8α mouse Fc fusion protein; not shown: mouse IgG2a Fc
# T5 sequence (P01732 22-182 limits assumed): as the sequence (P01732 22-182 limits assumed) above
# Experimental: The global fitting was performed with a 1:1 fitting model using GatorOne software as described below.
# To measure the binding kinetics of the biotin-conjugated Fab molecule, streptavidin-immobilized SA-XT sensors (#160029, Gator Bio) were prehydrated in the kinetic buffer and loaded with […] biotinylated Fab sample CBD1033.37 or CBD1033.24 to a threshold response of 10 nm. […] The binder-loaded sensors were incubated in the diluted solutions to capture the CD8α protein for 1200 s to record the association phase. Sensors were finally incubated in the kinetic buffer for another 1200 s to record the dissociation phase. The spin speed for all steps was 1000 rpm. The temperature of the performed assays were at 37° C. during the association and dissociation. The sensor data were baseline subtracted, and global curve fitting of the kinetic data from six different analyte concentrations at a 1:1 monovalent binding model was performed using the GatorOne software (version v2.10) to determine the kinetic rate constants (kₒₙ and koff) and equilibrium dissociation constants (KD) of the analyzed binder.
# [11] = target: T1, human CD8αα homodimer, recombinant …; assay: BLI steady state, whole hIgG1-LALAPA antibody on CD8α-His (Ni-NTA sensor), 30 °C; remark: listed apart in the source
# Experimental: as §3
binder,measurement,setting,value
B1,Kd,[1],1.08 nM
same,koff,[1],7.53e-05 s⁻¹
same,kon,[1],69500 M⁻¹ s⁻¹
same,Kd,[2],5.75 nM
same,koff,[2],0.000179 s⁻¹
same,kon,[2],31200 M⁻¹ s⁻¹
same,Kd,[3],2.26 nM
same,koff,[3],6.93e-05 s⁻¹
same,kon,[3],30700 M⁻¹ s⁻¹
same,Kd,[4],24.8 nM
same,koff,[4],0.000503 s⁻¹
same,kon,[4],20300 M⁻¹ s⁻¹
same,Kd,[5],0.814 nM
same,koff,[5],5.67e-05 s⁻¹
same,kon,[5],69700 M⁻¹ s⁻¹
same,Kd,[6],1.08 nM
same,koff,[6],7.53e-05 s⁻¹
same,kon,[6],69500 M⁻¹ s⁻¹
same,Kd,[7],2.26 nM
same,koff,[7],6.93e-05 s⁻¹
same,kon,[7],30700 M⁻¹ s⁻¹
B2,Kd,[8],5.15 nM
same,EC50,[9],2.69 nM
B3,Kd,[8],2.32 nM
same,EC50,[9],2.42 nM
B4,Kd,[8],4.74 nM
same,EC50,[9],2.57 nM
B5,Kd,[10],4.01 nM
same,koff,[10],0.00013 s⁻¹
same,kon,[10],32400 M⁻¹ s⁻¹
B6,Kd,[11],3 nM
B7,Kd,[11],6.41 nM
